The values that follow come from article PMC5821868, “Human Semaphorin-4A drives Th2 responses by binding to receptor ILT-4” (Nature Communications, 2018).

The target in the experiment is T1, recombinant SEMA4A-Fc (Sino Bio. Inc) (human, UniProt Q9H3S1 33-683).
T1 construct: Semaphorin-4A (SEMA4A), human; Used only in the SPR experiment, coated on the CM5 chip; Probably the extracellular domain (surmise); no catalogue number is printed; also called hSEMA4A; source: bought: Sino Bio; Inc
T1 sequence (looked up): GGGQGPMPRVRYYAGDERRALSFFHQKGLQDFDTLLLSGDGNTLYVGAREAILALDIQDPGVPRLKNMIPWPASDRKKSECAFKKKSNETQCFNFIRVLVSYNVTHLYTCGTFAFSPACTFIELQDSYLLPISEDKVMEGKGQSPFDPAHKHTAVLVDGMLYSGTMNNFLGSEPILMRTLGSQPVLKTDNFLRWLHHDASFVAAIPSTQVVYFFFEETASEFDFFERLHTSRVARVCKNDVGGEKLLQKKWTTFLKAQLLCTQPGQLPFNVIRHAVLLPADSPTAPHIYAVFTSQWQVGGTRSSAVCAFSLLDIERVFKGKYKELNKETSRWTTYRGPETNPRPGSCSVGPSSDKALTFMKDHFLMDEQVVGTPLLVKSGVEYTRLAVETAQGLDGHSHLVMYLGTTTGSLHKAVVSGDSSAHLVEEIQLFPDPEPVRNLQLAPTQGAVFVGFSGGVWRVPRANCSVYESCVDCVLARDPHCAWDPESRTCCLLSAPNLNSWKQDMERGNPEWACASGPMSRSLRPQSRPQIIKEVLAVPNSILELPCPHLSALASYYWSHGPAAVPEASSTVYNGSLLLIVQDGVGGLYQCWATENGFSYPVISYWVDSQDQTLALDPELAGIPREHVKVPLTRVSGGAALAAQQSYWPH
Description: SPR; SEMA4A-Fc (Sino Bio. Inc, 25 ug/ml) coated on a series S CM5 chip; ILT-4-Fc flowed at 10 to 0.625 uM in twofold dilutions; 25 °C; BIAcore T100. The settings on record: both partners purified.

B1: recombinant ILT-4-Fc fusion protein (R&D Systems) (Fc fusion, human, UniProt Q8N423 22-460, looked up)
chain: QTGTIPKPTLWAEPDSVITQGSPVTLSCQGSLEAQEYRLYREKKSASWITRIRPELVKNGQFHIPSITWEHTGRYGCQYYSRARWSELSDPLVLVMTGAYPKPTLSAQPSPVVTSGGRVTLQCESQVAFGGFILCKEGEDEHPQCLNSQPHARGSSRAIFSVGPVSPNRRWSHRCYGYDLNSPYVWSSPSDLLELLVPGVSKKPSLSVQPGPVMAPGESLTLQCVSDVGYDRFVLYKEGERDLRQLPGRQPQAGLSQANFTLGPVSRSYGGQYRCYGAHNLSSECSAPSDPLDILITGQIRGTPFISVQPGPTVASGENVTLLCQSWRQFHTFLLTKAGAADAPLRLRSIHEYPKYQAEFPMSPVTSAHAGTYRCYGSLNSDPYLLSHPSEPLELVVSGPSMGSSPPPTGPISTPGPEDQPLTPTGSDPQSGLGRHLGV
notes: Immunoglobulin-like transcript 4 (ILT-4, LILRB2), human; APC-labelled with the Zenon labeling kit for flow cytometry; Probably the extracellular domain of ILT-4 (surmise); no catalogue number is printed; also called APC-ILT-4-Fc; hILT-4; source: bought: R&D Systems
For the molecule B1, the Kd turned out to be 3.8 µM.
